# Reference: the supplement of paper PMC11908140
# B1: library; numbered along this chain (parent)
# chain: MRKPRAAVGSGHRKQAASQEGRQKHAKNNSQAKPSACDGLARQPEEVVLQASVSSYHLFRDVAEVTAFRGSLLSWYDQEKRDLPWRRRAEDEMDLDRRAYAVWVSEVMLQQTQVATVINYYTGWMQKWPTLQDLASASLEEVNQLWAGLGYYSRGRRLQEGARKVVEELGGHMPRTAETLQQLLPGVGRYTAGAIASIAFGQATGVVDGNVARVLCRVRAIGADPSSTLVSQQLWGLAQQLVDPARPGDFNQAAMELGATVCTPQRPLCSQCPVESLCRARQRVEQEQLLASGSLSGSPDVEECAPNTGQCHLCLPPSEPWDQTLGVVNFPRKASRKPPREESSATCVLEQPGALGAQILLVQRPNSGLLAGLWEFPSVTWEPSEQLQRKALLQELQRWAGPLPATHLRHLGEVVHTFSHIKLTYQVYGLALEGQTPVTTVPPGARWLTQEEFHTAAVSTAMKKVFRVYQGQQPGTCMGSKRSQVSSPCSRKKPRMGQQVLDNFFRSHISTDAHSLNSAAQ
# Variants of: B1
# Experiment: 8OG:A repair function score (normalized; synonymous = 0, nonsense = -1) (normalized log-likelihood score); higher = more repair activity (WT-like)
# Details: with 8OG:A DNA repair reporter (GFP) in HEK-293 MUTYH KO cells
# How it was run: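 Lentiviral MUTYH cDNA NNN codon-scan libraries in HEK-293 MUTYH knockout cells (10 pg/ml doxycycline) were co-transfected with an 8OG:A GFP repair reporter plus mCherry. At 72 h, viable mCherry+ cells were sorted into GFP+ (repair) and GFP− bins, three replicates per tile, then tile amplicons were sequenced. Per-tile Rosace fitness scores became a normalized repair function score anchored on synonymous and nonsense distributions. Synonymous medians were set to 0 and nonsense to -1; variants under 300 counts per million at the start were removed.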
row,Variant,8OG:A repair function score
1,MRKPRAAVGSGHRKQAASQEGRQKHAKNNSQAKPSACDGLARQPEEVVLQASVSSYHLFRDVAEVTAFRGSLLSWYDQEKRDLPWRRRAEDEMDLDRRAYAVWVSEVMLQQTQVATVINYYTGWMQKWPTLQDLASASLEEVNQLWAGLGYYSRGRRLQEGARKVVEELGGHMPRTAETLQQLLPGVGRYTAGAIASIAFGQATGVVDGNVARVLCRVRAIGADPSSTLVSQQLWGLAQQLVDPARPGDFNQAAMELGATVCTPQRPLCSQCPVESLCRARQRVEQEQLLASGSLSGSPDVEECAPNTGQCHLCLPPSEPWDQTLGVVNFPRKASRKPPREESSATCVLEQPGALGAQILLVQRPNSGLLAGLWEFPSVTWEPSEQLQRKALLQELQRWAGPLPATHLRHLGEVVHTFSHIKLTYQVYGLALEGQTPVTTVPPGARWLTQEEFHTAAVSTAMKKVFRVYQGQQPGTCMGSKRSQVSSPCSRKKPRMGQQVLDNFFRSHIHTDAHSLNSAAQ [S510H],0.0212
2,MRKPRAAVGSGHRKQAASQEGRQKHAKNNSQAKPSACDGLARQPEEVVLQASVSSYHLFRDVAEVTAFRGSLLSWYDQEKRDLPWRRRAEDEMDLDRRAYAVWVSEVMLQQTQVATVINYYTGWMQKWPTLQDLASASLEEVNQLWAGLGYYSRGRRLQEGARKVVEELGGHMPRTAETLQQLLPGVGRYTAGAIASIAFGQATGVVDGNVARVLCRVRAIGADPSSTLVSQQLWGLAQQLVDPARPGDFNQAAMELGATVCTPQRPLCSQCPVESLCRARQRVEQEQLLASGSLSGSPDVEECAPNTGQCHLCLPPSEPWDQTLGVVNFPRKASRKPPREESSATCVLEQPGALGAQILLVQRPNSGLLAGLWEFPSVTWEPSEQLQRKALLQELQRWAGPLPATHLRHLGEVVHTFSHIKLTYQVYGLALEGQTPVTTVPPGARWLTQEEFHTAAVSTAMKKVFRVYQGQQPGTCMGSKRSQVSSPCSRKKPRMGQQVLDNFFRSHIITDAHSLNSAAQ [S510I],-0.0731
3,MRKPRAAVGSGHRKQAASQEGRQKHAKNNSQAKPSACDGLARQPEEVVLQASVSSYHLFRDVAEVTAFRGSLLSWYDQEKRDLPWRRRAEDEMDLDRRAYAVWVSEVMLQQTQVATVINYYTGWMQKWPTLQDLASASLEEVNQLWAGLGYYSRGRRLQEGARKVVEELGGHMPRTAETLQQLLPGVGRYTAGAIASIAFGQATGVVDGNVARVLCRVRAIGADPSSTLVSQQLWGLAQQLVDPARPGDFNQAAMELGATVCTPQRPLCSQCPVESLCRARQRVEQEQLLASGSLSGSPDVEECAPNTGQCHLCLPPSEPWDQTLGVVNFPRKASRKPPREESSATCVLEQPGALGAQILLVQRPNSGLLAGLWEFPSVTWEPSEQLQRKALLQELQRWAGPLPATHLRHLGEVVHTFSHIKLTYQVYGLALEGQTPVTTVPPGARWLTQEEFHTAAVSTAMKKVFRVYQGQQPGTCMGSKRSQVSSPCSRKKPRMGQQVLDNFFRSHIKTDAHSLNSAAQ [S510K],-0.00453
4,MRKPRAAVGSGHRKQAASQEGRQKHAKNNSQAKPSACDGLARQPEEVVLQASVSSYHLFRDVAEVTAFRGSLLSWYDQEKRDLPWRRRAEDEMDLDRRAYAVWVSEVMLQQTQVATVINYYTGWMQKWPTLQDLASASLEEVNQLWAGLGYYSRGRRLQEGARKVVEELGGHMPRTAETLQQLLPGVGRYTAGAIASIAFGQATGVVDGNVARVLCRVRAIGADPSSTLVSQQLWGLAQQLVDPARPGDFNQAAMELGATVCTPQRPLCSQCPVESLCRARQRVEQEQLLASGSLSGSPDVEECAPNTGQCHLCLPPSEPWDQTLGVVNFPRKASRKPPREESSATCVLEQPGALGAQILLVQRPNSGLLAGLWEFPSVTWEPSEQLQRKALLQELQRWAGPLPATHLRHLGEVVHTFSHIKLTYQVYGLALEGQTPVTTVPPGARWLTQEEFHTAAVSTAMKKVFRVYQGQQPGTCMGSKRSQVSSPCSRKKPRMGQQVLDNFFRSHIMTDAHSLNSAAQ [S510M],-0.0272
5,MRKPRAAVGSGHRKQAASQEGRQKHAKNNSQAKPSACDGLARQPEEVVLQASVSSYHLFRDVAEVTAFRGSLLSWYDQEKRDLPWRRRAEDEMDLDRRAYAVWVSEVMLQQTQVATVINYYTGWMQKWPTLQDLASASLEEVNQLWAGLGYYSRGRRLQEGARKVVEELGGHMPRTAETLQQLLPGVGRYTAGAIASIAFGQATGVVDGNVARVLCRVRAIGADPSSTLVSQQLWGLAQQLVDPARPGDFNQAAMELGATVCTPQRPLCSQCPVESLCRARQRVEQEQLLASGSLSGSPDVEECAPNTGQCHLCLPPSEPWDQTLGVVNFPRKASRKPPREESSATCVLEQPGALGAQILLVQRPNSGLLAGLWEFPSVTWEPSEQLQRKALLQELQRWAGPLPATHLRHLGEVVHTFSHIKLTYQVYGLALEGQTPVTTVPPGARWLTQEEFHTAAVSTAMKKVFRVYQGQQPGTCMGSKRSQVSSPCSRKKPRMGQQVLDNFFRSHIGTDAHSLNSAAQ [S510G],-0.0202
6,MRKPRAAVGSGHRKQAASQEGRQKHAKNNSQAKPSACDGLARQPEEVVLQASVSSYHLFRDVAEVTAFRGSLLSWYDQEKRDLPWRRRAEDEMDLDRRAYAVWVSEVMLQQTQVATVINYYTGWMQKWPTLQDLASASLEEVNQLWAGLGYYSRGRRLQEGARKVVEELGGHMPRTAETLQQLLPGVGRYTAGAIASIAFGQATGVVDGNVARVLCRVRAIGADPSSTLVSQQLWGLAQQLVDPARPGDFNQAAMELGATVCTPQRPLCSQCPVESLCRARQRVEQEQLLASGSLSGSPDVEECAPNTGQCHLCLPPSEPWDQTLGVVNFPRKASRKPPREESSATCVLEQPGALGAQILLVQRPNSGLLAGLWEFPSVTWEPSEQLQRKALLQELQRWAGPLPATHLRHLGEVVHTFSHIKLTYQVYGLALEGQTPVTTVPPGARWLTQEEFHTAAVSTAMKKVFRVYQGQQPGTCMGSKRSQVSSPCSRKKPRMGQQVLDNFFRSHILTDAHSLNSAAQ [S510L],0.0205
